{
  "source": "patent US20200016207A1",
  "about": "“[…] c-MPL PROVIDES LIGAND-DEPENDENT CO-STIMULATION AND CYTOKINE SIGNALS TO TCR-ENGINEERED T CELLS” (Baylor College of Medicine, priority 2017, published 2020)",
  "molecules": {"B1": {"name": "thrombopoietin (protein)", "chain": "SPAPPACDLRVLSKLLRDSHVLHSRLSQCPEVHPLPTPVLLPAVDFSLGEWKTQMEETKAQDILGAVTLLLEGVMAARGQLGPTCLSSLLGQLSGQVRLLLGALQSLLGTQLPPQGRTTAHKDPNAIFLSFQHLLRGKVRFLMLVGGSTLCVRRAPPTTAVPSRTSLVLTLNEL", "notes": "recombinant human thrombopoietin, ligand of c-MPL"}},
  "type_in_all_cases": "cell-based, human",
  "key": {"[1]": {"tested_on": "c-MPL+ cells", "experiment": "c-MPL ligand-dependent STAT3/STAT5 phosphorylation in TCR+c-MPL+ T cells", "conditions": "TPO 50 ng/ml or EP 0.1 μg/ml, 1 or 24 hours; c-MPL- cells did not", "procedure": "Similar results were obtained with the TPO small molecule agonist EP. A dose-titration experiment was used to determine the optimal concentration of EP to support c-MPL+ T cell expansion (FIG. 2C). EP was previously shown to inhibit leukemia cell proliferation at higher concentrations (1-10 μg/ml) by reduction of intracellular iron, a c-MPL independent effect (Roth et al., 2012). NT or c-MPL+ T cells were re-activated on OKT3/CD28-coated plates in the presence of different EP concentrations and expansion of viable T cells was determined after 7 days. […] Next, it was evaluated whether rhTPO enhanced the anti-tumor function of TCR+c-MPL+ T cells using two different HLA-A*0201+survivin+hematologic malignancies as targets (U266 multiple myeloma, BV173 leukemia) (FIGS. 2E-2F). […]\nCells were stained ith antibodies and analyzed by flow cytometry. […] Cell viability was assessed by 7-AAD staining. T cells and tumor cell populations from co-culture assays were quantified by adding CountBright Beads (Invitrogen) to the analysis. T cell memory marker expression on CD8+ T cells re-covered from co-cultures was analyzed by staining cells with FITC-, PE-, ECD-, PerCP-, APC-, APC-AF750, or V450-conjugated Abs against CD45RO, CD45RA, CD62L, CCR7, CD110, mCβ, CD19, and 7AAD. […]"}, "[2]": {"tested_on": "TCR+c-MPL+ T cells", "experiment": "Antigen-specific expansion with survivin peptide-pulsed aAPCs, TCR+c-MPL+ T cells", "conditions": "rhTPO 5, 50, 500 ng/ml, two stimulations", "procedure": "aAPCs (described above) were pulsed with the […] survivin peptide (Genemed Synthesis), irradiated at 100 cGy, and used to stimulate T cells at an E:T ratio of 4:1 with IL-2 (50 U/mL) or rhTPO (5 ng/mL, 50 ng/mL, or 500 ng/mL). At the end of the first stimulation (7 days), cells were collected, counted, phenotyped and re-stimulated with fresh peptide-pulsed aAPCs under the same conditions. Fold expansion was recorded at the end of the second stimulation."}, "[3]": {"tested_on": "TCR+ T cells", "experiment": "Antigen-specific expansion with survivin peptide-pulsed aAPCs, TCR+ T cells", "conditions": "IL-2 50 U/mL; rhTPO up to 500 ng/ml", "procedure": "At the end of the first stimulation (7 days), cells were collected, counted, phenotyped and re-stimulated with fresh peptide-pulsed aAPCs under the same conditions. Fold expansion was recorded at the end of the second stimulation."}, "[4]": {"tested_on": "c-MPL+ T cells", "experiment": "Expansion of polyclonal c-MPL+ T cells in TPO", "conditions": "cell number from 3×10^6 cells, TPO 50 ng/ml, mean±SD, n=4", "procedure": "(§1) […] Transient retroviral supernatant was prepared by transfection of 293T cells and activated T cells were transduced as described (Arber et al., 2015). The number of retroviral integrants in TCR+c-MPL+ T cells was estimated by quantitative PCR. Whole PBMC's were isolated from fresh buffy coats by Lymphoprep (Axis-Shield) density gradient centrifugation. If required, CD8+ T cells were isolated from PBMCs using magnetic beads and columns (Miltenyi Biotec). […]\n(§2) Cells were stained ith antibodies and analyzed by flow cytometry. […] Cell viability was assessed by 7-AAD staining. T cells and tumor cell populations from co-culture assays were quantified by adding CountBright Beads (Invitrogen) to the analysis. T cell memory marker expression on CD8+ T cells re-covered from co-cultures was analyzed by staining cells with FITC-, PE-, ECD-, PerCP-, APC-, APC-AF750, or V450-conjugated Abs against CD45RO, CD45RA, CD62L, CCR7, CD110, mCβ, CD19, and 7AAD. […] To assess cell proliferation, cells were labeled with Carboxyfluorescein succinimidyl ester (CFSE, ThermoFisher) and analyzed after 7 days of culture. […]"}, "[5]": {"tested_on": "c-MPL downstream signaling in c-MPL+ T cells", "experiment": "Phosflow for pSTAT5, c-MPL downstream signaling", "conditions": "rhTPO 5 and 50 ng/ml; EP 0.1 μg/ml; 1 or 24 hours", "procedure": "(§3) Cells were stained ith antibodies and analyzed by flow cytometry. Cells were stained with FITC-, phycoerythrin- (PE-), peridinin chlorophyll protein-(PerCP-), or allophycocyanin-conjugated (APC-conjugated) antibodies (Abs) against CD3, CD4, CD8, CD110 (c-MPL), murine TCR constant region (mCβ, ebioscience), CD19, or CD138. Cell viability was assessed by 7-AAD staining. T cells and tumor cell populations from co-culture assays were quantified by adding CountBright Beads (Invitrogen) to the analysis. T cell memory marker expression on CD8+ T cells re-covered from co-cultures was analyzed by staining cells with FITC-, PE-, ECD-, PerCP-, APC-, APC-AF750, or V450-conjugated Abs against CD45RO, CD45RA, CD62L, CCR7, CD110, mCβ, CD19, and 7AAD. Intracellular staining for phosphoproteins pSTAT3 and pSTAT5 was performed with PE- and Pacific Blue-conjugated Abs and Phosflow reagents (BD). To assess cell proliferation, cells were labeled with Carboxyfluorescein succinimidyl ester (CFSE, ThermoFisher) and analyzed after 7 days of culture. All antibodies were purchased from BD or Beckman Coulter unless otherwise indicated, and all staining procedures were performed according to the manufacturer's recommendation. Data acquisition was performed on a BD FACSCalibur using CellQuest software or a Beckman Coulter Gallios flow cytometer using Kaluza software. […]"}, "[6]": {"tested_on": "TCR+c-MPL+ T cells", "experiment": "RNA-sequencing and GSEA of sequential killer T cells", "conditions": "after 3 BV173 challenges, rhTPO 50 ng/mL or EP 0.1 μg/mL", "text": "Total RNA was extracted from T cells of 3 independent donors, purified after sequential co-culture in no cytokine, rhTPO or EP (see above and FIG. 4A) using the RNeasy Mini Kit (Qiagen). T cell purification consisted of either dead cell removal alone (see above) or dead cell removal followed by FACS sorting (FACS Aria, BD, Flow Cytometry Core Laboratory at the Texas Children's Hospital Feigin Center), to achieve a >98% T cell purity and T cell viability of >90%. Total RNA samples were sent to GENEWIZ for library preparation and next generation sequencing, with 30 million reads per sample at a 1×50 base pair configuration.\nRNA-Seq was performed in triplicates from 3 independent donors for all 3 conditions (control, rhTPO and EP; see main text). Fastq files were aligned to the transcriptome using HiSat2 with default parameters (Kim et al., 2015). Following alignment and quality control analysis, one replicate of the control dataset was removed due to poor signal to noise ratio. Transcripts were assembled and FPKM values were generated using cuffquant and cuffnorm from the cufflinks software suite (Trapnell et al., 2010) Active transcripts were defined as transcripts with a normalized FPKM value greater than 1 in at least one sample. […]"}, "[7]": {"tested_on": "immune synapses between TCR+c-MPL+ T cells and BV173 leukemia cells", "experiment": "Immunological synapse imaging (confocal microscopy)", "conditions": "mean±SD", "procedure": "T cells isolated from sequential killing co-cultures and fresh BV173 target cells were mixed at E:T 1:2, incubated for 10 minutes, fixed, permeabilized, stained with the appropriate antibodies, and analyzed on a Leica TCS SP8 laser scanning microscope. T cells were co-cultured with BV173 cells at an E:T ratio of 1:5 in CTL media with no cytokines, rhTPO (50 ng/mL) or EP (0.1 μg/mL). After one killing (no cytokine condition) or three sequential killings (rhTPO and EP conditions), cells were collected and dead cells removed (Dead Cell Removal Kit, Miltenyi) (FIG. 4A). For confocal microscopy, T cells and fresh BV173 target cells were mixed at E:T ratio of 1:2, incubated for ten minutes in a tube and ten minutes on silane-coated glass slides (Electron Microscopy Sciences) at 37° C. Cells were then permeabilized and fixed with Perm/Fix solution (BD) for 15 minutes at room temperature and stained with anti-Pericentrin (rabbit, Abcam) and anti-Perforin Alexa-488 (mouse, BD Biosciences) primary antibodies. Phalloidin 568 (Life Technologies) was used to detect F-actin. Cells were imaged as Z stacks of 0.2 μm thickness to cover their entire volume on a Leica TCS SP8 laser scanning microscope using a 100× objective. Images were acquired with the LASAF software (Leica) and analyzed with Imaris software (Imaris) and Fiji."}, "[8]": {"tested_on": "U266 myeloma cells", "experiment": "Co-culture of TCR+c-MPL+ T cells with U266 myeloma cells", "conditions": "rhTPO 50 ng/ml, IL2 25 U/ml, n=3", "procedure": "as §3"}, "[9]": {"tested_on": "NT T cells", "experiment": "Expansion of non-transduced (NT) T cells in TPO", "conditions": "cell number from 3×10^6 cells, TPO 50 ng/ml, mean±SD, n=4", "procedure": "as §1, §2"}, "[10]": {"tested_on": "BV173 leukemia cells", "experiment": "Serial (sequential) co-culture with BV173 leukemia cells", "procedure": "Cells were stained ith antibodies and analyzed by flow cytometry. Cells were stained with FITC-, phycoerythrin- (PE-), peridinin chlorophyll protein-(PerCP-), or allophycocyanin-conjugated (APC-conjugated) antibodies (Abs) against CD3, CD4, CD8, CD110 (c-MPL), murine TCR constant region (mCβ, ebioscience), CD19, or CD138. Cell viability was assessed by 7-AAD staining. T cells and tumor cell populations from co-culture assays were quantified by adding CountBright Beads (Invitrogen) to the analysis. T cell memory marker expression on CD8+ T cells re-covered from co-cultures was analyzed by staining cells with FITC-, PE-, ECD-, PerCP-, APC-, APC-AF750, or V450-conjugated Abs against CD45RO, CD45RA, CD62L, CCR7, CD110, mCβ, CD19, and 7AAD. Intracellular staining for phosphoproteins pSTAT3 and pSTAT5 was performed with PE- and Pacific Blue-conjugated Abs and Phosflow reagents (BD). To assess cell proliferation, cells were labeled with Carboxyfluorescein succinimidyl ester (CFSE, ThermoFisher) and analyzed after 7 days of culture. All antibodies were purchased from BD or Beckman Coulter unless otherwise indicated, and all staining procedures were performed according to the manufacturer's recommendation. Data acquisition was performed on a BD FACSCalibur using CellQuest software or a Beckman Coulter Gallios flow cytometer using Kaluza software. Data analysis was performed with FlowJo software (Tree Star Inc.).\nBV173 or U266B1 cells and T cells were co-cultured in up to eight replicate wells at various E:T ratios in CTL media with no cytokines, rhTPO (5 ng/mL or 50 ng/mL), or EP (0.1 μg/mL). […] Co-culture supernatants were harvested 24 hours after initial plating or tumor-cell add-back to replicate wells and stored at −80° C. for further analysis."}, "[11]": {"tested_on": "BV173 leukemia cells", "experiment": "Co-culture of TCR+c-MPL+ T cells with BV173 leukemia cells", "conditions": "day 5, E:T 1:3; rhTPO 50 ng/ml, IL2 25 U/ml; noCK 16.7±8.1×10^4", "procedure": "as §3"}, "[12]": {"conditions": "after three tumor cell challenges"}, "[13]": {"conditions": "baseline after T cell expansion"}},
  "data": [
    {"molecule": "B1", "values": [
      {"measurement": "STAT3 and STAT5 phosphorylation in c-MPL+ cells", "setting": "[1]", "result": "phosphorylated"},
      {"measurement": "antigen-specific expansion of TCR+c-MPL+ T cells", "setting": "[2]", "result": "expanded in a TPO-dose dependent manner"},
      {"measurement": "antigen-specific expansion of TCR+ T cells", "setting": "[3]", "result": "not"},
      {"measurement": "c-MPL+ cells in TPO by day 7", "setting": "[4]", "result": "7.44±0.99×10^6"},
      {"measurement": "STAT5 phosphorylation in c-MPL+ T cells", "setting": "[5]", "result": "occurred"},
      {"measurement": "cell cycle associated genes in T cells from treated co-cultures versus controls", "setting": "[6]", "result": "downregulated"},
      {"measurement": "MTOC to synapse distance, co-culture", "setting": "[7]; [12]", "result": "1.46±1.58", "unit": "μm"},
      {"measurement": "perforin distance to the synapse (perforin convergence), co-culture", "setting": "[7]; [12]", "result": "3.68±1.70", "unit": "μm"},
      {"measurement": "actin accumulation at the synapse, co-culture", "setting": "[7]; after three tumor cell challenges, rhTPO 50 ng/mL or EP 0.1 μg/mL", "result": "52.60±16.32", "unit": "%"},
      {"measurement": "MTOC to synapse distance, baseline", "setting": "[7]; [13]", "result": "3.96±2.49", "unit": "μm"},
      {"measurement": "actin accumulation at the synapse, baseline", "setting": "[7]; [13]", "result": "35.23±16.41", "unit": "%"},
      {"measurement": "perforin distance to the synapse (perforin convergence), baseline", "setting": "[7]; [13]", "result": "3.53±1.00", "unit": "μm"},
      {"measurement": "residual U266 cells", "setting": "[8]; day 5, E:T 1:1, TCR+c-MPL+ T cells, noCK 43.3±1.1×10^5", "result": "22.8±11.2×10^5"},
      {"measurement": "T cell count in U266 co-culture", "setting": "[8]; day 5, E:T 1:1, noCK 1.84±0.31×10^5", "result": "4.41±5.11×10^5"},
      {"measurement": "NT cells in TPO by day 7", "setting": "[9]", "result": "0.89±0.61×10^6"},
      {"measurement": "T cell expansion in serial co-culture", "setting": "[10]; E:T 1:5, versus no cytokines", "result": "significantly enhanced"},
      {"measurement": "CD45RA+CD45RO+ and central memory cells among persistent T cells", "setting": "[10]; serial co-culture", "result": "enrichment"},
      {"measurement": "Th1 cytokine production in sequential co-cultures", "setting": "[10]; supernatants 24 hours after tumor cell challenge", "result": "sustained"},
      {"measurement": "T cell count in BV173 co-culture", "setting": "[11]", "result": "31.5±19.1×10^4"}
    ]}
  ]
}
